Measured values: patent US20190358295A1

Experiments:
[1] = molecular target: Mst1r (macrophage stimulating 1 receptor/RON kinase) on mouse erythroid progenitor cells (mouse) (UniProt Q62190); test: cell-based or functional assay
[2] = molecular target: IL-17Ra on mouse bone marrow erythroid progenitor cells (mouse) (UniProt Q60943); test: cell-based or functional assay
UniProt Q60943, sequence (Q60943 32-864): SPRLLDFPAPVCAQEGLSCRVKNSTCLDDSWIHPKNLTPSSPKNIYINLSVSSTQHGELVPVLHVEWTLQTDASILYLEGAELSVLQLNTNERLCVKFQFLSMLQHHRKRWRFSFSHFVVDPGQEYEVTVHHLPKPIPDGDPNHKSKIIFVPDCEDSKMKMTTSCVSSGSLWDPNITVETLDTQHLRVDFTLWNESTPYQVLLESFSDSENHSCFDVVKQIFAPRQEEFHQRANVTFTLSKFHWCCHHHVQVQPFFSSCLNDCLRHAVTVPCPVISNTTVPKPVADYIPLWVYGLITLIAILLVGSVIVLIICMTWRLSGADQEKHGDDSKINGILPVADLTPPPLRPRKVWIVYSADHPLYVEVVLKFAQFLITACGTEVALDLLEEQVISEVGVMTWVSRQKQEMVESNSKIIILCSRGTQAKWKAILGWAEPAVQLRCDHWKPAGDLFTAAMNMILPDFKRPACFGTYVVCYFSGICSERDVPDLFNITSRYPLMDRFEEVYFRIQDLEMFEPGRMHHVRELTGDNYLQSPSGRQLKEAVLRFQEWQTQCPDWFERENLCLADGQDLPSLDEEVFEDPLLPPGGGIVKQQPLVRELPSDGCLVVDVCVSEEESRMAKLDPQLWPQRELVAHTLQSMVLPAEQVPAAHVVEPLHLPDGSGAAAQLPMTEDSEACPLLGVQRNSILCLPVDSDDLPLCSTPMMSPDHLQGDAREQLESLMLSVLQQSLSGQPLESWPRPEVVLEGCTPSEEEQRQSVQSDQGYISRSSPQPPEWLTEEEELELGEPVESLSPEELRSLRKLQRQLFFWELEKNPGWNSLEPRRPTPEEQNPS

UniProt Q62190, sequence (Q62190 24-1378): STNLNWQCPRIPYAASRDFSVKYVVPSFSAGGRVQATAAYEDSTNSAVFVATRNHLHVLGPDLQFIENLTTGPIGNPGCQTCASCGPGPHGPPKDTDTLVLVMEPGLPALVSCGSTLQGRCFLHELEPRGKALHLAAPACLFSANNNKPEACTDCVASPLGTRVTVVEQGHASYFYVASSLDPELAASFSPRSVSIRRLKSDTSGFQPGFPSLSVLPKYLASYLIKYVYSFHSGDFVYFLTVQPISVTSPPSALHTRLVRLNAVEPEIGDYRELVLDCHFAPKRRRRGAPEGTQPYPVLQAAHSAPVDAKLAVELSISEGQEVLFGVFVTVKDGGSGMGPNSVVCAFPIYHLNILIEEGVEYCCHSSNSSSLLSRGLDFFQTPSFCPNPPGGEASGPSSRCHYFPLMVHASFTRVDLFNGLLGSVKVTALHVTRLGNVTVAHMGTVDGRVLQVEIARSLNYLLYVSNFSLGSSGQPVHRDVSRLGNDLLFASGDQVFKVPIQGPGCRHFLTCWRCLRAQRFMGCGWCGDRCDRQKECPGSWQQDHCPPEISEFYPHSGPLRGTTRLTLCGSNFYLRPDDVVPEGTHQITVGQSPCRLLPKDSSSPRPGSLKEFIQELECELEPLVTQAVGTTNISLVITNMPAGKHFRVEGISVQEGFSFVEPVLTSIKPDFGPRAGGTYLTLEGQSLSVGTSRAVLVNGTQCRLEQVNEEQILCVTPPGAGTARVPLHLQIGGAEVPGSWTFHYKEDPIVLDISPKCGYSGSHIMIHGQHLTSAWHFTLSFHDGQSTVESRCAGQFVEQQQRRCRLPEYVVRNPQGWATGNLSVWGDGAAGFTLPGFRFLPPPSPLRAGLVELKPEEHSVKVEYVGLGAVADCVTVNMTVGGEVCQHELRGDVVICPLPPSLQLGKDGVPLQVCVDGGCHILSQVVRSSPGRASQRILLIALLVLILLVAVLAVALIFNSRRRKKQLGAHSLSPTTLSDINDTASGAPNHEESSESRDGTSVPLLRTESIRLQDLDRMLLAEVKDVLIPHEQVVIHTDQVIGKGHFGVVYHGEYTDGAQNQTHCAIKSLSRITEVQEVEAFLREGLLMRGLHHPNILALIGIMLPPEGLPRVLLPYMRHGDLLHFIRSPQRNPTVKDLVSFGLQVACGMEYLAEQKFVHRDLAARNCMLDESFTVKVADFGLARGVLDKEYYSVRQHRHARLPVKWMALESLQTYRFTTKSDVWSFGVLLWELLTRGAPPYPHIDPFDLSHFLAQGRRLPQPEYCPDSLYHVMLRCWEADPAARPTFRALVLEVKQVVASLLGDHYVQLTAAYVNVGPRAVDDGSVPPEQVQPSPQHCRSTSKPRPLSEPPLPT

MSP/MST1 (R&D systems; CAT #6244-MS-025) (from UniProt P26928 19-716) (ligand)
FL CFU-e colony formation at mildly elevated Epo (50 mU/ml) [1]: > 2 fold

B1: Recombinant Murine IL17 (IL-17A) (PeproTech) (ligand, UniProt Q62386 26-158, looked up)
chain: AAIIPQSSACPNTEAKDFLQNVKVNLKVFNSLGAKVSSRRPSDYLNRSTSPWTLHRNEDPDRYPSVIWEAQCRHQRCVNAEGKLDHHMNSVLIQQEILVLKREPESCPFTFRVEKMLVGVGCTCVASIVRQAA
adult BM CFU-e colony formation at lower Epo (50 mU/ml) [2]: 4 fold | adult BM CFU-e colony formation at maximal levels of Epo [2]: 50%
